# From patent US7915393B2 (Corixa Corporation, priority 2001, dated 2011)
# B1: WT1 DNA: naked DNA encoding the splice variant of WT1, SEQ ID NO:381 (nucleic acid)
# DNA: ATGGGCTCCGACGTTCGTGACCTGAACGCACTGCTGCCGGCAGTTCCGTCCCTGGGTGGTGGTGGTGGTTGCGCACTGCCGGTTAGCGGTGCAGCACAGTGGGCTCCGGTTCTGGACTTCGCACCGCCGGGTGCATCCGCATACGGTTCCCTGGGTGGTCCGGCACCGCCGCCGGCACCGCCGCCGCCGCCGCCGCCGCCGCCGCACTCCTTCATCAAACAGGAACCGAGCTGGGGTGGTGCAGAACCGCACGAAGAACAGTGCCTGAGCGCATTCACCGTTCACTTCTCCGGCCAGTTCACTGGCACAGCCGGAGCCTGTCGCTACGGGCCCTTCGGTCCTCCTCCGCCCAGCCAGGCGTCATCCGGCCAGGCCAGGATGTTTCCTAACGCGCCCTACCTGCCCAGCTGCCTCGAGAGCCAGCCCGCTATTCGCAATCAGGGTTACAGCACGGTCACCTTCGACGGGACGCCCAGCTACGGTCACACGCCCTCGCACCATGCGGCGCAGTTCCCCAACCACTCATTCAAGCATGAGGATCCCATGGGCCAGCAGGGCTCGCTGGGTGAGCAGCAGTACTCGGTGCCGCCCCCGGTCTATGGCTGCCACACCCCCACCGACAGCTGCACCGGCAGCCAGGCTTTGCTGCTGAGGACGCCCTACAGCAGTGACAATTTATACCAAATGACATCCCAGCTTGAATGCATGACCTGGAATCAGATGAACTTAGGAGCCACCTTAAAGGGCCACAGCACAGGGTACGAGAGCGATAACCACACAACGCCCATCCTCTGCGGAGCCCAATACAGAATACACACGCACGGTGTCTTCAGAGGCATTCAGGATGTGCGACGTGTGCCTGGAGTAGCCCCGACTCTTGTACGGTCGGCATCTGAGACCAGTGAGAAACGCCCCTTCATGTGTGCTTACCCAGGCTGCAATAAGAGATATTTTAAGCTGTCCCACTTACAGATGCACAGCAGGAAGCACACTGGTGAGAAACCATACCAGTGTGACTTCAAGGACTGTGAACGAAGGTTTTTTCGTTCAGACCAGCTCAAAAGACACCAAAGGAGACATACAGGTGTGAAACCATTCCAGTGTAAAACTTGTCAGCGAAAGTTCTCCCGGTCCGACCACCTGAAGACCCACACCAGGACTCATACAGGTGAAAAGCCCTTCAGCTGTCGGTGGCCAAGTTGTCAGAAAAAGTTTGCCCGGTCAGATGAATTAGTCCGCCATCACAACATGCATCAGAGAAACATGACCAAACTCCAGCTGGCGCTTTGAG
# System: WT1-specific CTL targets (DC transduced with WT1 or pulsed with WT1 peptides)
# Assay: CTL by chromium release after WT1 DNA or adenovirus/alphavirus immunization
# Format: in vivo, C57/BI6 mice; HLA-A2/Kb transgenic mice
# Conditions: C57/BI6 mice, 3 x 100 μg, 25:1 E:T ratio
# Description: Mice were sacrificed 2-3 weeks after the final immunization and CTL were evaluated by standard Chromium release assay.
# Mice were sacrificed 2-3 weeks after the final immunization and CTL were evaluated by standard Chromium release assay. […] Thus, this immunization strategy also effectively elicits WT1-specific CTL in vivo.
molecule,measurement,value
B1,lysis (WT1-specific cytotoxic T cell response),40%
